Assay results from US6867003.

Target: insulin receptor partially purified from CHO-IR cells (Chinese Hamster Ovary cells expressing high levels of insulin receptors of human origin) (human) (UniProt P06213)
Assay: cell-based or functional assay

amount giving 50% inhibition of the tyrosine kinase activity of the receptors (32P incorporation into poly Glu-Tyr): 0.13 µg
B1: GST-mGrb10 (protein, mouse, UniProt Q60760 1-621, looked up, not shown: a dimerising Fc or GST)
chain: MNNDINSSVESLNSACNMQSDTDTAPLLEDGQHASNQGAASSSRGQPQASPRQKMQRSQPVHILRRLQEEDQQLRTASLPAIPNPFPELTGAAPGSPPSVAPSSLPPPPSQPPAKHCGRCEKWIPGENTRGNGKRKIWRWQFPPGFQLSKLTRPGLWTKTTARFSKKQPKNQCPTDTVNPVARMPTSQMEKLRLRKDVKVFSEDGTSKVVEILTDMTARDLCQLLVYKSHCVDDNSWTLVEHHPQLGLERCLEDHEIVVQVESTMPSESKFLFRKNYAKYEFFKNPVNFFPDQMVNWCQQSNGGQAQLLQNFLNTSSCPEIQGFLQVKEVGRKSWKKLYVCLRRSGLYYSTKGTSKEPRHLQLLADLEESSIFYLIAGKKQYNAPNEHGMCIKPNKAKTEMKELRLLCAEDEQIRTCWMTAFRLLKYGMLLYQNYRIPQRKGLPPPFNAPMRSVSENSLVAMDFSGQIGRVIDNPAEAQSAALEEGHAWRKRSTRMNILSSQSPLHPSTLNAVIHRTQHWFHGRISREESHRIIKQQGLVDGLFLLRDSQSNPKAFVLTLCHHQKIKNFQILPCEDDGQTFFTLDDGNTKFSDLIQLVDFYQLNKGVLPCKLKHHCIRVAL
